Results reported in a protein production outcome set (Wang et al. 2014).

assay: label from the status in PepcDB records

Sequence | protein production
MAQFAVIGLGSFGATVATELTKLNHDVIGIDSVKRNVEDLSDQLTHAVIADASDEHVLEELNIQNCETVVVAIGEDIEASILCVLHLKNMGVPQIWVKAKTKAHHMILSHLHVDKIIHPEEDMGVRIAQALNYPMVSRYMALDNDHFIVKVEIPKHLNGVHLLGLINEMSDVKTILLKRGKDIIYEPDPTCPVQSKDILILEGHIDQLKKLSRRFLPHEKTKN | failed
MAQHFLLTQKAKTLSAFEIANISEAEAFDLLCEARWGSKENVVCSKCGVQHKAYFISIRKQWRCKHCHHTFSVTSGTIFANHKLPLKTYLYILIRFVNAVKGVSALEISRDAKINYRTAFVLCHKLRKALLESRDMQPLSGEVDMGGTYIHPAPRKANKKADRIDYRLKENQNPNKRCVVVAREHFSADEKAENSLYRGAKRSHVFVTYSETQSVVKNFAHAYIEKNSRINTDENTAYESLLLDYDLRTVNHKDEYRSDFGVTNNQAESFFSRFKRMYYGHVHKMSNTYLLNYANEIAYREDNRRKPNGWQFHDILGKCLETTNEQNEWCGYWQRKIFHQEVIWQ | failed
MAQKENNIIPMIFDEAFYRKMATQKWRQQDYKKAAEYYEKVLELSPKDFDIQQHYAQCLVKLNIGKKAERLFYENIVKDFHVAESFYELSQLNIELNEPNKAFLFGINYVILSEDKDFREMLEKTFEVAYTNEQKIELEAQLFSTQLLFQFLFSQGRLEEARTYILNQSYEIQQHRVIRNLLAMCYLYLGEYDSAKAMFEELLKEDNSDVHALCHYTLLLYNKKETEKYQKYLKILNKVVPLNDDETFKLGIVLSYLKQYRASQNLLYPLYKKGKFVSIQMYNALSFNFYYLGNKDESIEMWNKLTQISKVDVGYAPWVIEESKTVFESRVLPLLLDDNNHYRLYGIFLLHQLNGKEILMTEDIWSILESMNDYEKLYLTYLVQGLTLNKLDFIHRGMQRLYNFKKFKYNTSLFTDWINQAEMIISENVDLVDVDRYVAAFVYLSYRRSSQPLTKRQLMDDFNVSRYKLNKAIEFILSI | failed
MAQRERKAGVVKRDKADKWNHVETARYFRDLQENEVRTMHYLGLAYVVLSRRPNLQLKVPLSTQNYEDGAIVGAGERGGYALQLLFTCAANYPLARPLVEIVEKRNVSDAFEQVLRKEIDLILEEHLGLQMIVPVVTRLQITLNTEMKRQRF | failed
MAQRKNAKSSGNSSSSGSGSGSTSAGSSSPGARRETKHGGHKNGRKGGLSGTSFFTWFMVIALLGVWTSVAVVWFDLVDYEEVLGKLGIYDADGDGDFDVDDAKVLLGLKERSTSEPAVPPEEAEPHTEPEEQVPVEAEPQNIEDEAKEQIQSLLHEMVHAEHVEGEDLQQEDGPTGEPQQEDDEFLMATDVDDRFETLEPEVSHEETEHSYHVEETVSQDCNQDMEEMMSEQENPDSSEPVVEDERLHHDTDDVTYQVYEEQAVYEPLENEGIEITEVTAPPEDNPVEDSQVIVEEVSIFPVEEQQEVPPETNRKTDDPEQKAKVKKKKPKLLNKFDKTIKAELDAAEKLRKRGKIEEAVNAFKELVRKYPQSPRARYGKAQCEDDLAEKRRSNEVLRGAIETYQEVASLPDVPADLLKLSLKRRSDRQQFLGHMRGSLLTLQRLVQLFPNDTSLKNDLGVGYLLIGDNDNAKKVYEEVLSVTPNDGFAKVHYGFILKAQNKIAESIPYLKEGIESGDPGTDDGRFYFHLGDAMQRVGNKEAYKWYELGHKRGHFASVWQRSLYNVNGLKAQPWWTPKETGYTELVKSLERNWKLIRDEGLAVMDKAKGLFLPEDENLREKGDWSQFTLWQQGRRNENACKGAPKTCTLLEKFPETTGCRRGQIKYSIMHPGTHVWPHTGPTNCRLRMHLGLVIPKEGCKIRCANETRTWEEGKVLIFDDSFEHEVWQDASSFRLIFIVDVWHPELTPQQRRSLPAI | failed
MAQSNSRETFSSRLGFILAAAGAAVGLGNIWGFPTQAASNGGGAFLLVYLILIFVVAFPMLVVEMAIGRYGQANPVDSMRSLTSQPAAKKVGGFVGWVGLSVPSAVLAFYSIVGGWIICFLLGAMTDLFGFTAASAWLKGFSVERNLFGTLIFYVLTILIVQGGVKQGIERWSTRLMPALFVLFAVLFIYIMTQQGAWEGLKHYLIPDFEKVWDRKLILAAMGQGFFSLTIGGCSMLIYGSYLSKKENLPKMAMSVTLVDTAVAFIAGLVVLPAMFVAMNKGVQIYAQDGSLLSSDTLVFTVLPLMFDSLGLLGQIFAMVFFLLLTIAALTSSISMLECPVALVGERFNTRRTPTSWVLGGLIALFSVVIVYNFGALFGLVATLATQYLQPTAALMFCLFGGWVWQRDAKMKELQAGFPELQQSLFGKIWPWYVKFVCPVLVATVIWASFG | failed
MAQVEAPVIGITVLYFLAIIIIGYYSRQRLKSATDYYVAGRQVGAVVNGLALESTYLSPASMLGLPAYIFILGYPFWWAMSAIIAGMPIATLLTASALRKYAPTSFADYYADRYNDQRLRWLVGIVTVIGAVLYITLSLVGMALFLLAVAKVPYIIGLIVGTIIVMLYVVWGGMIATSWNAAFQAFLMTVAAVIAAAVIVIKLGGLGGFYEAVLANNPKFWNTPSDPEPPHLLSGTWIAVIGWFFVWHYGFATMPYTVVRFFTTMDIKTARRSIFWCTLAAGIFYMALEIIGAASKLMIETGPMGGEGANAVKILQSYMAQYGVGGWTDYSMIAAVEALQNPWVLGILCAGGLAIAMSTAAGWVMVVNTLLTRDWGDMLLKSKFAKEKPVTLARIISVIFLIVGFLVAINPPGLVLDLSGWAFVVIISALGPGLVLGLWWKRATRAAMWTTAIVMTPLHLYAWLKAKLVLGHHAFFFLNDVLFGNAKALITPHQVWAIPVGFLLFIIVSLITKPVEEEAVQKYCVELTKEV | failed
MAQVNKQAIAAAFGRAASQYEQHASLQQHSADALLTLLTGRQFASVLDAGCGPGRMSRYWRERGSEVTALDLSLPMLQQARDRQAAHHYLLADIEAIPHDAEVFDLAWSNLAVQWCGDLRDALSELYRVVRPGGVVAFTTLCQGSLPELRQAWQAVDNRAHANSFLPEEAIDHALRGWRAFRHTQAMTLWFEDALSAMRSLKGIGATHLHEGRESDVLTRARLRQIQLAWPQRQGKYPLTYHLFMGVIERD | failed
MARANFEPYGRDFPGGRATGRFCNGRLSSDFTSEAYGLKPTVPAYLDPSYNISDFATGVCFASAGTGYDNSTADVLGVIPLWKEVEYFKEYQSNLSAYLGHRRAAKIIRESLYIVSIGTNDFLENYYTLPDRRSQFSISQYQDFLVEIAEVFLKDIYRLGARKMSFTGISPMGCLPLERVTNLDDPFSCARSYNDLAVDFNGRLRRLVTKLNRELTGIKIYFANPYDIMWDIVTKPNLYGLEISSSACCGTGLFEMGFLCGQDNPLTCSDANKFVFWDAFHPTERTNQIVSDHFFKHLKNLFH | failed
MARAVHRSGLVALGIATALMASCAFAAKDVVVAVGSNFTTLDPYDANDTLSQAVAKSFYQGLFGLDKEMKLKNVLAESYTVSDDGITYTVKLREGIKFQDGTDFNAAAVKANLDRASDPANHLKRYNLYKNIAKTEAIDPTTVKITLKQPFSAFINILAHPATAMISPAALEKYGKEIGFYPVGTGPYELDTWNQTDFVKVKKFAGYWQPGLPKLDSITWRPVADNNTRAAMLQTGEAQFAFPIPYEQATLLEKNKNIELMASPSIMQRYISMNVTQKPFDNPKVREALNYAINRPALVKVAFAGYATPATGVVPPSIAYAQSYKPWPYDPVKARELLKEAGYPNGFSTTLWSSHNHSTAQKVLQFTQQQLAQVGIKAQVTAMDAGQRAAEVEGKGQKESGVRMFYTGWSASTGEADWALSPLFASQNWPPTLFNTAFYSNKQVDDFLAQALKTNDPAEKTRLYKAAQDIIWQESPWIPLVVEKLVSAHSKNLTGFWIMPDTGFSFEDADLQ | not failed
MARGELPRASISDTIPMTMASIDAGSVRFTARADKRHLNPLGGVHGGFAATVLDSVTGCAIHSILEAGVGYGTVDLSVKRVKAVPEDTPLVAEGRVLHVPCAIGSQRADLMLAPPRLGRDRRCPAGHAPAGAARAACAPQGRLTPMRRPLNAAPAARRCGRTGTDRSRAPGRACAAPWSSAC | failed
MARIRIEAPGTIVYETLMDVRIGDINYANHLGNDALLRIAQEARLRLFRDWGYVDELHIDGVGIVVADAAICYLSEAFLGDVLRILVGTADIHRKGLDFIYQVIDDNSGREVARLKTGIVFFDYPARQVALMPESFSAKLGQLEHHHHHH | not failed
MARLARLGEPFALATVVASSGSSPRKAGAKMLIRGDGSALGTVGGGHVEQDTLAAARASLAEGAPRTLEFVLTEEHGYACGGSMSVFIEPQGRRPLLVMFGAGHVGRAVTALAHGCGFRVIVVDERPEYAVPALLPGADEIVCVPVGAAFARLTLDRESFAVIATPGHVHDFDAVRGCLATEVGFIGLLGSRRKREALMKTLTEEGYEAGRQARVVTPVGLDIGAQTPEEIAVSIVGQLVKLRRQA | failed
MARMKARSGKGRRVARDTWKTKSWYEIRTPQSFGGDLLGTTPANDPSNLLGRVTETSLKDLTNDHSKHMVRLYFKVDGVAGNNATTQFVGHNTTREYLKSLVRRRRSKIVTITDIRTKDGYKIRVKAMVLTAVRARDHHKTDIRKKMEQIIVNMARNSTFPEFVQAMLLGGLGSKIYATCKRIMPMKRVEIYKSEVMEFGKSATPVVEAPAETEVKEEVKKEVVETQTE | failed
MARPAYRLLAYSLWDLIPIAMAVAHFAFVLWLVLDFHALSWWVILPAALLYAVSLSWSINSISHNQIHNAYFTPGWMNRGFDLLLSVTIGFSQTLYRDIHNRHHRGNSDLPDANGKTVDPLSIYLHGKDGQPDNPWAYTFLSFFRDDPKEIYQEMQRKRPDDARWVKVEIGVTVAFYLALALYDWHAVLVLLPFWYLGQSLSSLNGYYEHLGGNPDLPIAWGVSSYSPLYNLIWMNNGYHAEHHYRPKMHWTKVKAFHREIREQQRAAGVKVIPVSHGLGFLVAHRKV | failed
MARQSTKFSDKFLRALKPQEKPYDIREGDGFGVRVFPSGARSFFYMYHFDGKRRFLNLGKYPQLSLADARQKHRDAVSQHAKGIDPLAATQEQKRERREAITVADLIDEYVKNWAKVYKVERSATEDERALSKDVLPYWGKRKAKDIKRTDAIALLERIVRRGSPGQARNILKVGRKMYEFAIERKYVEANPFSRISKAVPATMPRTRSRVLTESEIKYIWSAIDKSAGSDETKRALKLILVTAQRPGEVIGMHRREIDGEWWTIPPERIKTEKDRTRSNSVGPQPHRVYLSPLALELIGDKDGYIFESPRGGAMDSKALSHVVHAAPLVPELVRDTEGHVFAGPCGPVAAKALMQLLEKEIAYPDKEKYYGLTRWTPHDLRRTARTRMSAINIPTRHAERVLNHTLPGIQKTYDLYRYDPQKKAALTKWAAYLEELLR | failed
MARRSICEERRQQAGAGQPRGRCSDWQRRQRTLRPDATPMPADGRPRCSCLFSLLLSDPDLWKSWMSSQTAAERELAELLVESLNLEDVQPADIDPEAPLFNTGLGLDSIDALELALAISKRYGFQLRSDNDENRRIFASLRALSAHVQANKTV | failed
MARSEGNRPRHRAVPQPSRIRKRLSRGVMTLVSVVALLMTGAGYWVAHGALGGITISQALTPEDPRSSGNNMNILLIGLDSRKDQEGNDLPWSVLKQLHAGDSDDGGYNTNTLILVHVGADGKVVAFSIPRDDWVPFTGVPGYNHIKIKEAYGLTKQYVAEQLANQGVSDRKELETRGREAARAATLRAVRSLTGVPIDYFAEINLAGFYDLAQTLGGVDVCLNHAVYDSYSGADFPAGRQRLNAAQALAFVRQRHGLDNGDLDRTHRQQAFLSSVMRELQDSGTFTNLDRLDNLMAVARKDVVLSAGWDEDLFRRMGDLAGGNVEFRTLPVVRYDNIDGQDVNIIDPTAIRAEVAAAFGSAPPTSQTAAAAKPNPSTVVDVVNAGSISGLASQVSGALLKRGYTAGQVRDRESGDPFTTAIEYGAGAETDAQNVADLLGIDAPNHPDPAVAPGHIRVTVDTNFSLPAPDEATAAATSTETSTYPLYGGGTTTDPTPDQGAPIDGGGVPCVN | failed
MARSFSLAKNPLFWQVAIAGIILDQLSKLWVSQAMDPVGTTWPLWSGVFHFTYVLNTGAAFSAFRGGAGWLKWLSLAVSVGLIIFAGKVPLRKLEQLGYGCILAGAVGNGIDRFLFGHVIDFLDFRLINFPIFNLADVSINIGIAALLWASFFPVSSRKVD | failed
